B1: Serine/arginine-rich splicing factor 2 (Homo sapiens), Q01130 (parent)
chain: MSYGRPPPDVEGMTSLKVDNLTYRTSPDTLRRVFEKYGRVGDVYIPRDRYTKESRGFAFVRFHDKRDAEDAMDAMDGAVLDGRELRVQMARYGRPPDSHHSRRGPPPRRYGGGGYGRRSRSPRRRRRSRSRSRSRSRSRSRSRYSRSKSRSRTRSRSRSTSKSRSARRSKSKSSSVSRSRSRSRSRSRSRSPPPVSKRESKSRSRSKSPPKSPEEEGAVSS

The assay covers variants of B1. Particulars: with kat5_human KAT5, Q92993.
Chain of kat5_human KAT5, Q92993 (Q92993 whole entry, looked up): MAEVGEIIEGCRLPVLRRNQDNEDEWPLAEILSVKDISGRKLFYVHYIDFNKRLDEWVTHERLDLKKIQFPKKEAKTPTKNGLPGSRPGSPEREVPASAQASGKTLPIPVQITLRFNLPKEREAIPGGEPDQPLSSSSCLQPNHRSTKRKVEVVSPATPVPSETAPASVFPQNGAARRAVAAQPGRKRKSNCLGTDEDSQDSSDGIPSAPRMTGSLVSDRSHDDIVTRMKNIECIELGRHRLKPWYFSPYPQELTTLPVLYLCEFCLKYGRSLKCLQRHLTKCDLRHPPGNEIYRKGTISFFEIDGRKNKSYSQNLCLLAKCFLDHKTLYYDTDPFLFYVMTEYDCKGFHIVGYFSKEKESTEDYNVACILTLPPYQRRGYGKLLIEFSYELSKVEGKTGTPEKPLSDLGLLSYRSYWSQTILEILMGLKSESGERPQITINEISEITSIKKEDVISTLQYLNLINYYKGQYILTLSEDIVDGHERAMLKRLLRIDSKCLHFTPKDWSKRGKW
Regarding MSYGRPPPDVEGMTSLKVDNLTYRTSPDTLRRVFEKYGRVGDVYIPRDRYTRESRGFAFVRFHDKRDAEDAMDAMDGAVLDGRELRVQMARYGRPPDSHHSRRGPPPRRYGGGGYGRRSRSPRRRRRSRSRSRSRSRSRSRSRYSRSKSRSRTRSRSRSTSKSRSARRSKSKSSSVSRSRSRSRSRSRSRSPPPVSKRESKSRSRSKSPPKSPEEEGAVSS [K52R], the “effect of a mutation on the interaction” value is “disrupting interaction”.

The values are drawn from IntAct's records for PubMed 21157427.
